{"source": "paper PMC7875320", "binders": {"B1": {"name": "IGA3 (structured_DNA)", "DNA": "GGTGGTGGGGGGGGTTGGTAGGGTGTCTTC", "modifications": "5'-NH2 (amine)"}}, "target": "human insulin (Homo sapiens, UniProt P01308;P01308 25-54;90-110)", "sequence (P01308 25-54, chain 1 of 2)": "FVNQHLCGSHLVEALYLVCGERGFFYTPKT", "sequence (P01308 90-110, chain 2 of 2)": "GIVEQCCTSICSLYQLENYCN", "assay": "graphene field-effect transistor"}
{"binder": "B1", "values": [{"measurement": "Kd", "result": 35, "unit": "nM"}]}
